Source: the nanobody polyreactivity screen of Harvey et al. (2022)

experiment: yeast display, Sf9 membrane polyspecificity reagent, FACS + sequencing; frameworks hold sequencing errors
Summary of the method: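 Genes from sorted yeast were amplified by colony PCR, read by MiSeq 2 × 250 sequencing and filtered on CDR length. These cells carried a synthetic nanobody library in Saccharomyces cerevisiae BJ5465 and were sorted by FACS into low and high (top ~1%) gates on anti-HA and streptavidin fluorescence. Polyreactivity is labelled according to the gate of origin.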

Row | Sequence | polyreactivity (PSR sort gate)
1 | QVQLVESGGGLVQAGGSLRLSCAASGRTFNSNAMGWYRQAPGKERELVAAISGSGGSTYYADSVKGRFTISRDNAKNTVYLQMNSLKPEDTAVYYCAAAARQWKKYDYWGQGTQVTVSS | high polyreactivity
2 | QFQLVESGGGLVQAGGSLRLSCAASGFIIRVNAMAWYRQAPGTERQLVATITWNGGSTYYADSVKGRFTISRDNAKNTVYLQMNSLKPDDTAVYYCNRVRYRGYYPGPYSYSYDYWGQGTQVTVSS | low polyreactivity
3 | QVQLVESGGGLVQAGGSLRLSCAATGFFFGPYVMGWYRQATGKERELVAVITWTGGSTSYADSVKGRFTISRDNAKNTVYLQMNSLKREDTAVYYCAARTHQYRSRSYYYWGQGTQVTVSS | high polyreactivity
4 | QVQLVESGGGLVQAGGSLRLSCAASGSIFVPYAMGWYRQAPGKERELVAAINSGGGTDYADSVKGRFTISRDNAKNTVYLQMNSLKPEDTAVYYCAKSRVAYRGWDHKYYIYDYWGQGTQVTVSS | low polyreactivity
5 | QVQLEESGGGLVQAGGSLRLSCAASGLTIFVNAMGWYRQAPGKERELVATISGGGSTYYADSVKARFTISRDNAKNTVYLQMNSLKPEDTAVYYCATVWPHRFRYEYWGQGTQVTVSS | low polyreactivity
6 | QVQLVESGGGLVQAGGSLRLSCAASGRIFLYNAMGWYRQAPGKEREFVATISYSGGRTNYADSVKGRFTISRDNAKNTVYLQMNSLKPEDTAVYYCAARWPWFYAHAYDYWGQGTQVTVSS | high polyreactivity
7 | QVQLVESGGGLFQAGGSLRLSCAASGIIFYVNAMAWSRQAPGKERERVAVISRRGGSTNDADSVKGRFTISRDNAKNTVYLQMKSLKPEDTAVYYCDAGYRTAYRGSSYYYWGKGTQVTVSS | high polyreactivity
8 | QVQLVESGGGLVQAGGSLRLSCDDSGGIFGFYSMGWYRQAPGKERELVAAISGDGGSTYYADSVKGRFTISRDNATNTVYLQMNSLKPEDTAVYYCTAAFFTEYYQGDYWGQGTQVTVSS | low polyreactivity
9 | QVQLVESGGGLVQAGGSLRLSCAASGLIFAYYAMGWYRQAPGKERELVAAISWTGGSTYYADSVKGRFTISRDNAKNTVYLQMTSLKPEDTAVYYCNTVGKPGFYSWGQGTQVTVSS | high polyreactivity
10 | QVQLVESGGGLVQAGGSLRLSCAASGITFFDYAMGWYRQAPGKERELFAAIDLSDGRTYYADSVKGRFTISRDNAKNTVYLQMNSLKPEDTAVYYCNADSFLSWVYRYVYYGSGYWGQGTQVTVSS | low polyreactivity
11 | QVQLVESGGGLVQAGGSLRLSCAASGFTFGYYTMGWYRQAPGKERELVAAITWRGTTYYADSVKGRFTISRDNAKNTVYLQMNSLKPEDTAVYYCATVVLLRIWGGYWGQGTQVTVSS | high polyreactivity
12 | QDQLEESGGGLVQEGGSLRLSCAASGFTFRGYAMGWYRQAPGKERELVAAISYSGGSTYYADSVKGRFTISRDNAMNSVYLQMNSLKPEDTAVYFCAARGGGKVRHRGTYDYWGQGTQVTVSS | high polyreactivity
13 | QVQLVESGGGLVQAGGSLRLSCAASGFIFWGNAMGWYRQAPGKERELLAAINYSGGRTYYADSVKGRFTISRDNAKNTVYLQMNSLKPEDSAAYYCAAKYRYHVSGYDYWGQATQVTVSS | high polyreactivity
14 | QVHLVESGGGLVKAGGSLRLSCAASGNTFLWYAMGWYRQAPGKERELVAAITYSGGSTYYADSVKGRFTISRDNAKNTVYLQMNSLKPEYTPVYYCAAVGSYLAGYQFDYWGQGTQVNVSS | low polyreactivity
15 | QVQLVESGGGLVQAGGSLRLSCAASGRTFGRYAMGWYRQAPGKERELVAAISWSGGSTYYADSVKGRFTISRDNAKNSVYLQMNSLKPEDTAVYYCAAYEHVYVYDYWGQGTQVTVSS | low polyreactivity
16 | QVQLVESGGGLVQAGGSLRLSCAASGYIFYFNAMGWYRQAPGKEREVVAAITFSGGATYYADSVKGRFTISRDTAKNTVYLQMNSLKPEDTAVYYCAAASRRSGAYTFYRTTSGAYGYWGQGTQVTVSS | high polyreactivity
17 | QVQLVESGGVLVQAGGSLRLSCAASGSTFVYNAMGWYRQAPGKESEFVAAISGSGGSTYYADSVKGRFTISRDIAKNTVYLQMNSLKPDDTAVYYCATAGRYGRYRTYPYRSKYDYWGQGTQVTVSS | high polyreactivity
18 | QVQLVESGGGLVQAGGSLSLSCAASGRIFPPYAMGWYRPAPGKERELVAAISVSGSNTYYADSVKGRFTISRYNAKNTVYLQMNSLKPEDTAVYYCNAKRYSPVYYWYDYCGQGTQVTVSS | high polyreactivity
19 | QVQLVESGGGLVQAGGSLRLSCAASGRIFGDNAMGWYRQAPGKERELVAGIRWRADRTYYADSVKGRFTISRDNAKNTVYLQMNSLKPEDTAVYYCNADVVRYRHWHRGDYWGQGTQVTVSS | low polyreactivity
20 | QVQLVESGGGLVQAGGSLRLSSAASGSTFDDYVMGWYRQAPGKERELVAGINSRGTSTDYADSVKGRFTISRDNAKNTVYLQMNSLKPEDTAVYYCNAESPSGRLFDDAYENDYWGQGTQVTVSS | low polyreactivity
21 | QVQLVESGGGLVQAGGSLRLSCAASGRIFYSNAMGWYRQAPGKERELVATISTGGSTYADSVKGRFTISRDNAKNTVYLQMNSLKPEETAVYYCAVDEWRWRVGAVAYYYWGQGTQVTVSS | low polyreactivity
22 | QVQLVESGGGLVQAGGSLRLSCAASGRIFYYYAMGWYRQAPGKERELVAAIRWSGGSTYYADSVKGRFTISRDNEKNTVYLQMNSLKPEDTAVYYCAADSRTNGYDYWGQGTQVTVSS | high polyreactivity

Row | Sequence | polyreactivity (PSR sort gate)
23 | QFQLVESGGGLVQAGGILRLSCAASGSIFYHNAMGWSRQAPGKERELVAAITGSGGSTYYADSVKGRFTISRDNAKNTVYLQMNSLKPEDTAVYYCAADGYTKWWISWGYDYWGQGTQVTVSS | low polyreactivity
24 | QVQLVESGGGLVQAGGSLRLSCAASGLIFYDNMGWYRQAPGKERELVAAISSSGGSTSYADSVKGRFTISRDNAKNTVYFLMNSLKPEDTAVYYCAADQYYYWYTHQSIGYDYWGQGTQVTVSS | low polyreactivity
25 | QVQLVESGVGLVQAGGSLRLSCAASGITFDENTMGWYIQAPGKERELVAAITEIGGSTYYADSVKGRFTISRDNAKNTVYLQMNSLKPEDTAVYYCNADRWVVRFVDYEYWGQGTQVTVSS | low polyreactivity
26 | QVQLVESGGGLVQAGGSLRLSCAASGFIFNAYAMGWYRQAPGKERELVAAISTRGSNTYYADSVKGRFTISRDNAKNTVYLQMNSLKPEDTAVYDCAARGYVTYSKSNYWGQGTQVTVSS | high polyreactivity
27 | QVQLVESGGGLVQAGGSLRLSCAASGSIFAINAMGWYRQAPGKERELVARISWSGGRTYYADSVKGRFTISRDNAKNTVYLQMNSLKPEDTAVYYCAKRYYKSLNRDEFDSWGQGTQVTVSS | high polyreactivity
28 | QVQLVESGGGLVQAGGSLRLSCAASGSTFDGYAMGWSRQAPGKERELVAAITFDGSSTYYADSVKGRFTISRDNAKNTVYLQMNSLKPEDTAVYYCAAASSYWVLWDDYWGQGTQVTVSS | low polyreactivity
29 | QVQLVESGGGLVQAGGSLRLSCAASGSIFTYYAMGWYRPAPGKERELVATITRRGGRTYYADSVKGRFTISRDNAKNTVYLQMNSLKPEDTAVYYCATRIRTVAYNYWGQGTQVTVSS | high polyreactivity
30 | QVQLVESGGGLVQAGGSLRLSCAASGSTFRYYAMGWYRQAPGKERELVAAITSSGGSTYYADSVKGRFTISRDNAKNTVYLQMNSLKPEDTAVYYCAVAVKNWVKLNYWGQGTQVTVSS | high polyreactivity
31 | QVQLVESGGGLVQAGGSLRLSWAASGLIFSSNAMGWYRQAPGKERDLVAAITRSGGSTYYADSVKGRFTISRDNAKNTVYLQMNSLKPEDTAVYYCAARYSQRGITFYYWGQGTQVTVSS | high polyreactivity
32 | QVQLVESGAGLVQAGGSLSLSCAASGRIFDRYVMGWYRQAPGKERELVAAISDGGSTYYADSVKGRFTISRDNAKNTVYLQMNSLKPEDTAVYYCAAVRYNSRVSTTPSEMYYWGQGTQVTVSS | low polyreactivity
33 | QVHLVESGGGLVQAGGSLRLSCAASGRTFGWNVMGWYRPAPGKERELVAAISGSGGSTYYADSVKGRFTISRDNAKNPVYLQMNSLKPEDTAVYYCAALYGPGREYDYWGQVTQVTVSS | low polyreactivity
34 | QVQLVESGGGLVQAGGSLRLSCAASGFIFSYYVMGWYRQAPGKERELVAGISWNGGRTYYADSVKGRFTISRDNAKNTVYFQMNSLKPEDTAVYYCAKDPYSKRRASSGYDYWGQGTQVTVSS | low polyreactivity
35 | QVQLVESGGGLVQAGGSLRLSCAASGRIFIGNAMGWYRQAPGKERELVADISYSGGTTYYADSVKGRFTISRENAKNTVYVQMNSLKPVDTAVYYCNKYDPRPVWQGWVWIEYYYWGQGTQVTVSS | low polyreactivity
36 | QVQLVESGGGLVQAGGSLRLSCAASGSTFWDYAMGWYRQAPGKERELVASISSGGRTYYADSVKGRFTISRDNAKNTVYLQMNSLKPEDTAVYYCARRSWWDYYSWGQGTQVTVSS | high polyreactivity
37 | QVQLVESGVGLVQAGGSLRLSCAASGSIFFPNAMGWYRQAPGKQRELVAAITSTSTNYAESVKGRCTISRDNAKNTVYLQMNSLKPEDTAVYYCAADGEFRRAWYEGDYWGQGTQVTVSS | low polyreactivity
38 | QVQLVESGGGLVQAGGSLRLSCAASGFIFRQNAMGWYRQAPGKERELVAAISGSGGRTYYADSVKGRFTISRDTAKNTVYLQMNSLKPEDTAVYYCAAQYVTSRFDYWGQGTQVTVSS | high polyreactivity
39 | QVQLVESGGGLFQAGGSLRLSCAASGFIFTRYAMGWYRQAPGKERELVAAISWSGGSTYYADSVKGRFTISRDNAKNTVYLQMNSLKPEDTAVYYCAADGSDSYDYWGQGTQVTVSS | low polyreactivity
40 | QVQLVESGGGLVQAGGSLRLSCAACGRTFQWYPMGGFRQAPGTERELVAAISWSGTSTYYADSVKGRFTISRDNAKHTVYLQMNSLKPEDTAVYYCNKPCDVWDHDYDYWGQGTQVTVST | low polyreactivity
41 | QVQLVESGGGLVQAGGSLRLSCAASGSTFLINAMGWYRQAPRKERELVATISSGGSTYYADSVKGRFTISRDNAKNTVYLQMNSLKPEDTAVYSCAADPDRTAYDYWGQGTQVTVSS | low polyreactivity
42 | QVQLVESGGGLVQAGGSLRLSCAASGIIFRGNVMGWYRQAPGKERELVAAISGSGGRTYYADSVKGRFTISRDNAKNTVYLQMNSLKPEVTAVYYCNADKAIRYDYWGQGPQVTVSS | high polyreactivity
43 | QVQLVESGGGLVQAGGTLRLSCAASGSIFGKNAMGWYRQARGKERELVAAITWSGGSTYYADSVKGRFTISRDNAKNTVSLQINSLKPEDTAVYYCNAVRVRVTSHRIRQLDYGYWGQGTQVTVSS | low polyreactivity
